Test results taken from PMC10366140.

Tested on: apRAD51C-CTD-1 R258H (Alvinella pompejana)
Assay: fluorescence polarization
Conditions: FP: 20 mM HEPES pH 8, 80 mM NaCl, 2.5 mM ATP, 2.5 mM MgCl2, 1 mM DTT, 0.1 mg/mL BSA, 10 nM DNA, 37 C 20 min, EMSA: 20 mM Tris pH 8.0, 150 mM KCl, 4 C 15 min

TTTTTTTTTTTTTTTTTTTT [poly-20dT]
Kd: 36.5 µM
